Key:
[1] = target: T1, endogenous cell surface human MSLN (human, UniProt Q13421 296-598); test: flow cytometry, NCI-H226 cells
T1 construct: whole, on cells; The cell line is named under assay; also called cell-surface MSLN on NCI-H226, OVCAR-3 and AsPC-1 cells

[2] = target: T2, human CD137 on primary human CD8+ T cells (human, UniProt Q07011 24-255); test: cell-based or functional assay
[3] = target: T2, human CD137 on primary human CD8+ T …; test: cell-based or functional assay; remark: listed apart in the source
[4] = target: T2, human CD137 on primary human CD8+ T …; test: cell-based or functional assay; remark: listed apart in the source
cMSLN-His-Avi [5] = target: T3, cMSLN-His-Avi (cynomolgus, single biotin on the Avi tag in the biotinylated form); test: SPR steady state, antigen immobilised ~50 RU
T3 construct: Monomeric; also called cyno MSLN-His-Avi; cMSLN-Avi-His
T3 chain: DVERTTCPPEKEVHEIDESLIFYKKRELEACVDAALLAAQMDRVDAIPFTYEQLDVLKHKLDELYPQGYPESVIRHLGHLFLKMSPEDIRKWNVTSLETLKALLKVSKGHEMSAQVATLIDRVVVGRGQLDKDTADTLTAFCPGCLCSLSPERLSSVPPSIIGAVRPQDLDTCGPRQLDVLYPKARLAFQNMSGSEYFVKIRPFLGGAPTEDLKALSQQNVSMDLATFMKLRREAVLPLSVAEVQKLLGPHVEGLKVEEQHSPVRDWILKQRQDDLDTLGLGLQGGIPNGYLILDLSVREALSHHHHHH
Protocol: The association time was 1000 sec to steady state and the dissociation time was 30 sec. Running buffer was HBS-EP (GE Healthcare BR100188). Flow cells were regenerated by injecting Glycine-HCl pH1.5 at a flow rate of 30 μl/min for 30 seconds. Data were analysed by double referencing against a flow cell which was intentionally left blank (no antigen coating). Steady state affinity model was used to analyse kinetic data using the BiaEvaluation software version 3.2.

hMSLN-His-Avi [6] = target: T4, hMSLN-His-Avi (human, UniProt Q13421 296-598, single biotin on the Avi tag in the biotinylated form); test: ratio of SPR KDs
T4 construct: Monomeric; also called human MSLN-His-Avi; hMSLN-Avi-His

hMSLN-His-Avi [7] = target: T4, hMSLN-His-Avi; test: ratio of SPR KDs; remark: listed apart in the source
hMSLN-His-Avi [8] = target: T4, hMSLN-His-Avi; test: SPR, hMSLN-His-Avi immobilised
hMSLN-His-Avi [9] = target: T4, hMSLN-His-Avi; test: SPR, hMSLN-His-Avi in solution
[10] = target: T1, endogenous cell surface human MSLN; test: flow cytometry, AsPC-1 cells
hMSLN-His-Avi [11] = target: T4, hMSLN-His-Avi; test: SPR, hMSLN-His-Avi immobilised ~100 RU, mAb2 injected; immobilised human MSLN (antigen capture), not MSLN in solution
Protocol: 7.1 Binding of CD137/MSLN mAb2 to Human MSLN Under Avid Conditions—Antigen Capture Method Binding of all mAb^2 to MSLN immobilised on a BIAcore chip was tested to determine the binding affinity to human MSLN under avid conditions, where a high concentration of immobilised antigen is available to allow the antibody to bind avidly. […] The association time was 5 min and the dissociation time was 10 min. Running buffer was HBS-EP (GE Healthcare BR100188). Flow cells were regenerated by injecting Glycine-HCl pH1.5 at a flow rate of 30 μl/min for 30 seconds. Data were analysed by double referencing against a flow cell which was intentionally left blank (no antigen coating). The binding kinetics were fitted with a 1:1 Langmuir model to generate binding association (k_a) and dissociation (k_d) rates. Equilibrium binding constants (K_D) were calculated by dividing the dissociation rate by the association rate for each sample. Data analysis was performed with BiaEvaluation software version 3.2.

hCD137-mFc-Avi = target: T5, hCD137-mFc-Avi (human; mouse, UniProt Q07011 24-186, one biotin on each Avi tag in the biotinylated form); test: SPR, mAb2 captured by anti-human Fab, hCD137-mFc-Avi in solution
T5 construct: also called human dimeric CD137; human CD137-mFc-Avi
Protocol: A Biacore CM5 chip was coated with anti-human Fab using a Human Fab Capture Kit (GE Healthcare 28958325) according to manufacturer's conditions, to a surface density of approximately 9000 RU. […] The association time was 5 min and the dissociation time was 5 min. Running buffer was HBS-EP. Flow cells were regenerated by injecting two repeat injections of 10 mM glycine-HCl at pH 2.1 at a flow rate of 30 μl/min for 30 seconds. Data analysis was performed as described in earlier examples (see e.g. Example 7.1).

[12] = target: T1, endogenous cell surface human MSLN; test: flow cytometry, OVCAR-3 cells
hMSLN-His-Avi [13] = target: T4, hMSLN-His-Avi; test: SPR, mAb2 captured on Protein G, hMSLN-His-Avi in solution
Protocol: (§1) The association time was 5 min and the dissociation time was 5 min. Running buffer was HBS-EP (GE Healthcare BR100188). Flow cells were regenerated by injecting Glycine-HCl pH2.1 at a flow rate of 30 μl/min for 15 seconds. The data was analysed as described in Example 7.1.

cMSLN-His-Avi [14] = target: T3, cMSLN-His-Avi; test: SPR
Protocol: as §1

hMSLN-His-Avi [15] = target: T4, hMSLN-His-Avi; test: SPR, hMSLN-His-Avi immobilised at 100 RU
human Thrombomodulin = human Thrombomodulin (human, UniProt P07204 19-515, limits assumed); test: ELISA, antigen coated 1 µg/ml
Protocol: (§2) Binding of the anti-MSLN mAbs, tested at a concentration range of 0.02 to 1000 nM (3-fold dilutions) was detected using anti-human Fab-HRP (Sigma, A0293).

human CEACAM-5-His-Fc = target: T6, human CEACAM-5-His-Fc (human, UniProt P06731 35-685); test: ELISA, antigen coated 1 µg/ml
T6 sequence (looked up): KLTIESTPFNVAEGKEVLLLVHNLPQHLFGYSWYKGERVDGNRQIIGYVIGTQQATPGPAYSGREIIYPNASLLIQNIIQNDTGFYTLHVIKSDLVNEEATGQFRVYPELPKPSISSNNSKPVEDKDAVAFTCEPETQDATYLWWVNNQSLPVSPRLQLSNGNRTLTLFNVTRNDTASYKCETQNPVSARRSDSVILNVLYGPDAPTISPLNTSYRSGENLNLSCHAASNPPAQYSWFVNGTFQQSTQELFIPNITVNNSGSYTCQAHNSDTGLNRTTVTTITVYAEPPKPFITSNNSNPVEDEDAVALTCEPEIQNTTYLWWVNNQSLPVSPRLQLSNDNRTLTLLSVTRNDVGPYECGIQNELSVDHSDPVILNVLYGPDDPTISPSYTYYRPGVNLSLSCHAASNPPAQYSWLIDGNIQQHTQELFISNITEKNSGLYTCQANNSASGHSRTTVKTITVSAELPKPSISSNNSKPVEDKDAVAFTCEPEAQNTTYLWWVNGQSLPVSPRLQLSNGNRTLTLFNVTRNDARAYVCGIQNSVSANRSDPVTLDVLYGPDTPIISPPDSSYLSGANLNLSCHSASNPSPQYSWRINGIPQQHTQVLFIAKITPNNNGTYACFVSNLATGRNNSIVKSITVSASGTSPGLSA
Protocol: as §2

human E-Cadherin = target: T7, human E-Cadherin (human, UniProt P12830 155-707); test: ELISA, antigen coated 1 µg/ml
T7 sequence (looked up): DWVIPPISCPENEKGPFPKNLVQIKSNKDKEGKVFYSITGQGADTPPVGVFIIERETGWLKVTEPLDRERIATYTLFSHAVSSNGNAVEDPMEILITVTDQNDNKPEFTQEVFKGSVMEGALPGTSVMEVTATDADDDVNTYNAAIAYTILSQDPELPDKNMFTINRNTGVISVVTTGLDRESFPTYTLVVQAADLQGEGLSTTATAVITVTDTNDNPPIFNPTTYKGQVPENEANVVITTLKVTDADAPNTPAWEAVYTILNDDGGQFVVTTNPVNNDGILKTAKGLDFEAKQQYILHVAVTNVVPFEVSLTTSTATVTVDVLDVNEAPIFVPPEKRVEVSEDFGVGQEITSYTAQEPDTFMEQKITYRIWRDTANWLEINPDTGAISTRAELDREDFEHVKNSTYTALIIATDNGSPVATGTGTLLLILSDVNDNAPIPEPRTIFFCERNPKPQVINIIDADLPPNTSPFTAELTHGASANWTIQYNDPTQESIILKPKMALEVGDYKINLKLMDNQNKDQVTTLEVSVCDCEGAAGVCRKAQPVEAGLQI
Protocol: as §2

human EpCAM-hFc = target: T8, human EpCAM-hFc (human, UniProt P16422 24-265, limits assumed); test: ELISA, antigen coated 1 µg/ml
T8 sequence (looked up): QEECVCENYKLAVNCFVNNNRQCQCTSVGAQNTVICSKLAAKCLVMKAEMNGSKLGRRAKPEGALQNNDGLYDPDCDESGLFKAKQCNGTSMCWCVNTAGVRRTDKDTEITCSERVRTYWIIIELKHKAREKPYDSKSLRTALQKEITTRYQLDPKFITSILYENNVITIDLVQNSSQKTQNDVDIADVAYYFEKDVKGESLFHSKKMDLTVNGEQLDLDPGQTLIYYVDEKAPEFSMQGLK
Protocol: as §2

hMSLN-His-Avi [16] = target: T4, hMSLN-His-Avi; test: ELISA, hMSLN-His-Avi coated 1 µg/ml
hMSLN-His-Avi [17] = target: T4, hMSLN-His-Avi; test: SPR, hMSLN-His-Avi immobilised at 50 RU

T2 sequence (Q07011 24-255): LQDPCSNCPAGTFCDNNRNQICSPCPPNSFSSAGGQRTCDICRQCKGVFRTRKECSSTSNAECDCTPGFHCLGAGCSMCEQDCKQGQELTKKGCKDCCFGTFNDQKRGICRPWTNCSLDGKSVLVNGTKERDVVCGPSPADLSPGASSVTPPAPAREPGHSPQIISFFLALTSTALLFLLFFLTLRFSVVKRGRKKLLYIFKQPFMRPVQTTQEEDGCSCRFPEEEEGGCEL
T4 sequence (Q13421 other isoform, or with tags, fused parts or gaps): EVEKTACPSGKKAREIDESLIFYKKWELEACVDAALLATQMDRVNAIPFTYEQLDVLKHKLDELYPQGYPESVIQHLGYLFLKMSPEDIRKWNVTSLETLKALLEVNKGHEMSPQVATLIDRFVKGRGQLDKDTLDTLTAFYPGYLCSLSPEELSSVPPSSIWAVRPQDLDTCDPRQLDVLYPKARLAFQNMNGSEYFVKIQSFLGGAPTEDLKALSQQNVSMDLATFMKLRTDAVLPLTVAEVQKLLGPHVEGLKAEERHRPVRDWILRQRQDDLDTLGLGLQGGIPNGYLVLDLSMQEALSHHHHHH
T1 sequence (Q13421 other isoform, or with tags, fused parts or gaps limits assumed): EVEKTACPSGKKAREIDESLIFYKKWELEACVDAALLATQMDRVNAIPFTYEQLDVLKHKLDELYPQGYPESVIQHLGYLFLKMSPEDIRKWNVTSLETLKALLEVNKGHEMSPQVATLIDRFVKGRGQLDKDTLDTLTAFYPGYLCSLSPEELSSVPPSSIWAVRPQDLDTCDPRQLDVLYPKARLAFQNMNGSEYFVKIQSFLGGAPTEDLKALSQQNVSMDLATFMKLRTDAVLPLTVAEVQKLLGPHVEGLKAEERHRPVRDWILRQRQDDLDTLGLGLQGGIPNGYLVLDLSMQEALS
T5 sequence (Q07011 24-186): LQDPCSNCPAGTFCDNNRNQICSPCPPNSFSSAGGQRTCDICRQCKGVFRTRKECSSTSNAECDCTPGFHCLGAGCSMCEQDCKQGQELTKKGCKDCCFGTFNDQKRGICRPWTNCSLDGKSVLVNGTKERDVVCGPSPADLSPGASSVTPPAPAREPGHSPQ
human Thrombomodulin, sequence (P07204 19-515 limits assumed): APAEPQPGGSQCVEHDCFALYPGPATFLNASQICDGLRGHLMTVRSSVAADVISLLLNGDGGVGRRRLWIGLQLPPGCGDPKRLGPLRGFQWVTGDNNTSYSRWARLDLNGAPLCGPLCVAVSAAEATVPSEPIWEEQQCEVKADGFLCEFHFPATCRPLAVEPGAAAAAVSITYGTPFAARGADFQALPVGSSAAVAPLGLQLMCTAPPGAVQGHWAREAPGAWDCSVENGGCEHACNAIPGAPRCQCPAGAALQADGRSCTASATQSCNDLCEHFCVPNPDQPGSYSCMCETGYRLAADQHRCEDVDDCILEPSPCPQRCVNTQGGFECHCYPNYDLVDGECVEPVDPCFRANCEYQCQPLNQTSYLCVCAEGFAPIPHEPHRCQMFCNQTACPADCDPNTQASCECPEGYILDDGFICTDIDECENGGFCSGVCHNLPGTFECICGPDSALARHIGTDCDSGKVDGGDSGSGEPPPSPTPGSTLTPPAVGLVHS

B1: FS22-172-003-AA/FS28-256-271 (bispecific antibody, human IgG1, kappa, L234A L235A, V domains shown)
VH: EVQLLESGGGLVQPGGSLRLSCAASGFTFTHTYMSWVRQAPGKGLEWVSAISPTYSTTNYADSVKGRFTISRDNNKNTLYLQMNSLRAEDTAVYYCARYNAYHAALDYWGQGTLVTVSS
VL: EIVLTQSPGTLSLSPGERATLSCRASQSVSSSYLAWYQQKPGQAPRLLIYGASSRATGIPDRFSGSGSGTDFTLTISRLEPEDFAVYYCQQTVPYPYTFGQGTKVEIKR
notes: IgG1 mAb^2 with LALA; also called anti-human CD137/MSLN mAb^2
EC50 [1]: 0.304 nM | fold change of IL-2 EC50 with soluble MSLN against none, NCI-H226 co-culture [2]: 3 fold | IFNγ production EC50 (96 h), AsPC-1 co-culture, Donor G [3]: 0.147 nM | IFNγ production EC50 (96 h), AsPC-1 co-culture, Donor H [3]: 0.164 nM | IFNγ production EC50 (96 h), AsPC-1 co-culture, Donor J [3]: 0.344 nM | IFNγ production EC50 (96 h), NCI-H226 co-culture, Donor G [3]: 0.0332 nM | IFNγ production EC50 (96 h), NCI-H226 co-culture, Donor H [3]: 0.0732 nM | IFNγ production EC50 (96 h), OVCAR-3 co-culture, Donor H [3]: 0.084 nM | IL-2 production EC50 (72 h), AsPC-1 co-culture, Donor C [3]: 0.778 nM | IL-2 production EC50 (72 h), AsPC-1 co-culture, Donor D [3]: 0.841 nM | IL-2 production EC50 (72 h), NCI-H226 co-culture, Donor C [3]: 0.111 nM | IL-2 production EC50 (72 h), NCI-H226 co-culture, Donor D [3]: 0.112 nM | IL-2 production EC50 (72 h), NCI-H226 co-culture, Donor E [3]: 0.0722 nM | IL-2 production EC50 (72 h), NCI-H226 co-culture, Donor F [3]: 0.0723 nM | IL-2 production EC50 (72 h), OVCAR-3 co-culture, Donor E [3]: 0.145 nM | IL-2 production EC50 (72 h), OVCAR-3 co-culture, Donor F [3]: 0.0693 nM | IL-2 release EC50, NCI-H226 co-culture, +2 nM sMSLN [4]: 0.139 nM | IL-2 release EC50, NCI-H226 co-culture, +20 nM sMSLN [4]: 0.353 nM | IL-2 release EC50, NCI-H226 co-culture, no sMSLN [4]: 0.117 nM | fold difference of binding to cMSLN against hMSLN (cMSLN-His-Avi [5]): ≤ 3 fold | KD ratio in solution/immobilised human MSLN (hMSLN-His-Avi [6]): 3 | ratio of KD in solution/immobilised (hMSLN-His-Avi [7]): 3 | Kd (hMSLN-His-Avi [8]): 5.9 nM | Kd (hMSLN-His-Avi [9]): 18.2 nM | EC50 [10]: 0.293 nM | Kd (hMSLN-His-Avi [11]): 5.9 nM | Kd (hCD137-mFc-Avi): 1.26 nM | EC50 [12]: 0.306 nM | Kd (hMSLN-His-Avi [13]): 18.2 nM

B2: FS28-024 (mAb in G1-AA format) (antibody, human IgG1, V domains shown)
VH: EVQLLESGGGLVQPGGSLRLSCAASGFTLSYSSMSWVRQAPGKGLEWVSFITPSTGYTHYADSVKGRFTISRDNSKNTLYLQMNSLRAEDTAVYYCARRALTFDYWGQGTLVTVSS
VL: EIVLTQSPGTLSLSPGERATLSCRASQSVSSSYLAWYQQKPGQAPRLLIYGASSRATGIPDRFSGSGSGTDFTLTISRLEPEDFAVYYCQQASSYPLTFGQGTKVEIK
fold lower affinity for cyno MSLN than for human MSLN (cMSLN-His-Avi [14]): ~5 fold | Kd (hMSLN-His-Avi [15]): 0.23 nM | binding result (human Thrombomodulin): no binding (tested: 1000 nM) | binding result (human CEACAM-5-His-Fc): no binding (tested: 1000 nM) | binding result (human E-Cadherin): no binding (tested: 1000 nM) | binding result (human EpCAM-hFc): no binding (tested: 1000 nM) | EC50 (hMSLN-His-Avi [16]): ~0.5 nM | maximum binding signal (hMSLN-His-Avi [16]): 3 | Kd (hMSLN-His-Avi [17]): 0.77 nM

Reference: patent publication US12319739 (F STAR DELTA, dated 2025)
